Results published in publication PMC6525047.

T1: RIPLET (human), Q8IUD6
T1 chain: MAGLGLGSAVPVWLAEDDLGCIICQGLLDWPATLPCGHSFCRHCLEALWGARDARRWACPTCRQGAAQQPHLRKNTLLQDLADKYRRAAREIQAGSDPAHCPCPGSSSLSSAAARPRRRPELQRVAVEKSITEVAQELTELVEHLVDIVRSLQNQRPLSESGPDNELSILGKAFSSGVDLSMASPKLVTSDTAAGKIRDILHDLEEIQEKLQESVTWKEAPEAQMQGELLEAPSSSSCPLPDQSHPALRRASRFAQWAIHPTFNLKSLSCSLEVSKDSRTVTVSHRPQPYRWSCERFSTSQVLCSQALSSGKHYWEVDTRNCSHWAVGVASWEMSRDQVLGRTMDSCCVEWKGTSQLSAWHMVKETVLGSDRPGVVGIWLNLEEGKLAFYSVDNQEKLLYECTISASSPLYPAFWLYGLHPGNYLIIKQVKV

T2: RIG-IdeltaN;RIPLET (human;human, UniProt O95786;Q8IUD6 230-925;1-432, |)
T2 sequence 1: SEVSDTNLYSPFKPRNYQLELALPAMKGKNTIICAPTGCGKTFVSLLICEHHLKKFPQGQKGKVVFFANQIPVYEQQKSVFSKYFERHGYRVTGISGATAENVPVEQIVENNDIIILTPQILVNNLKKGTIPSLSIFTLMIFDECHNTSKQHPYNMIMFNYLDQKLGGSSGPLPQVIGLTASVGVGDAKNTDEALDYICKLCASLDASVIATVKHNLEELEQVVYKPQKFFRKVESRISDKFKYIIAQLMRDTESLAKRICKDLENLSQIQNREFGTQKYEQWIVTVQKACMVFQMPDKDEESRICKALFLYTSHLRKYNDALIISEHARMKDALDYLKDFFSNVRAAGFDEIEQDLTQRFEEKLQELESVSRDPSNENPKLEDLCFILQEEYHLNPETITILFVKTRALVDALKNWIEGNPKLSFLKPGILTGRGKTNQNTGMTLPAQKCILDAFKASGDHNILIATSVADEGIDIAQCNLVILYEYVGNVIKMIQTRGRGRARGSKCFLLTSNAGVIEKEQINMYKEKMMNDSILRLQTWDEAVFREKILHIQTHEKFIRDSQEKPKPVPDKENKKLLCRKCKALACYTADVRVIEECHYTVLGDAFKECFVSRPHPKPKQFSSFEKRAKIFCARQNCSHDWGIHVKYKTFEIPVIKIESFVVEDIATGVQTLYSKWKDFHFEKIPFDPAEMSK
T2 sequence 2: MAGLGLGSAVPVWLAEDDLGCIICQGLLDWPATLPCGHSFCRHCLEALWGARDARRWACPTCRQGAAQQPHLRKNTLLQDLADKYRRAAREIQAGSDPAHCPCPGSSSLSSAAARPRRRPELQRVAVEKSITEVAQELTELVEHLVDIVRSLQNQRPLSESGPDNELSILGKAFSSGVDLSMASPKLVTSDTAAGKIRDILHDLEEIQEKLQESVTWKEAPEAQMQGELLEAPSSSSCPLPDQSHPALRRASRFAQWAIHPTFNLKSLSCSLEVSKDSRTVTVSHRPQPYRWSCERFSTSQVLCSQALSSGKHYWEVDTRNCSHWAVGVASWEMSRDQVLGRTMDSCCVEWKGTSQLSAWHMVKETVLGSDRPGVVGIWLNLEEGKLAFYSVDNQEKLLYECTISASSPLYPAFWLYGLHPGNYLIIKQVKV


Columns and labels:
[1] = target: T1, RIPLET (human), Q8IUD6; assay: SEC-MALS; conditions: remark: other sources report otherwise
[2] = target: T2, RIG-IdeltaN;RIPLET; assay: EMSA

| stoichiometry N [1] | Binder | binding result [2] |
| --- | --- | --- |
| 2 | RIPLET, Q8IUD6 1-432 (enzyme) MAGLGLGSAVPVWLAEDDLGCIICQGLLDWPATLPCGHSFCRHCLEALWGARDARRWACPTCRQGAAQQPHLRKNTLLQDLADKYRRAAREIQAGSDPAHCPCPGSSSLSSAAARPRRRPELQRVAVEKSITEVAQELTELVEHLVDIVRSLQNQRPLSESGPDNELSILGKAFSSGVDLSMASPKLVTSDTAAGKIRDILHDLEEIQEKLQESVTWKEAPEAQMQGELLEAPSSSSCPLPDQSHPALRRASRFAQWAIHPTFNLKSLSCSLEVSKDSRTVTVSHRPQPYRWSCERFSTSQVLCSQALSSGKHYWEVDTRNCSHWAVGVASWEMSRDQVLGRTMDSCCVEWKGTSQLSAWHMVKETVLGSDRPGVVGIWLNLEEGKLAFYSVDNQEKLLYECTISASSPLYPAFWLYGLHPGNYLIIKQVKV |  |
|  | 21 bp dsRNA (dsRNA, 5'ppp) RNA 1: GAGUCACGACGUUGUAAAAAA RNA 2: UUUUUUACAACGUCGUGACUC | binds |
